Experimental data reported in patent publication US20180282403A1, “AGENTS FOR REDUCING THE ACTIVITY OF GDF15” (GENAGON THERAPEUTICS AB, priority 2015, published 2018).
No end group written: not given here.

T1: GDF15 (Homo sapiens, UniProt Q99988)
T1 construct: purchased Abcam
T1 sequence (Q99988 197-308 limits assumed): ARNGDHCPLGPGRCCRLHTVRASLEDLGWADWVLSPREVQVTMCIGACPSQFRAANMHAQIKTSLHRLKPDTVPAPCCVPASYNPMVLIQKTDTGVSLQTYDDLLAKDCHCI

T2: QRFPR (Homo sapiens, UniProt Q96P65)
T2 construct: endogenous in cells
T2 sequence (Q96P65 1-431): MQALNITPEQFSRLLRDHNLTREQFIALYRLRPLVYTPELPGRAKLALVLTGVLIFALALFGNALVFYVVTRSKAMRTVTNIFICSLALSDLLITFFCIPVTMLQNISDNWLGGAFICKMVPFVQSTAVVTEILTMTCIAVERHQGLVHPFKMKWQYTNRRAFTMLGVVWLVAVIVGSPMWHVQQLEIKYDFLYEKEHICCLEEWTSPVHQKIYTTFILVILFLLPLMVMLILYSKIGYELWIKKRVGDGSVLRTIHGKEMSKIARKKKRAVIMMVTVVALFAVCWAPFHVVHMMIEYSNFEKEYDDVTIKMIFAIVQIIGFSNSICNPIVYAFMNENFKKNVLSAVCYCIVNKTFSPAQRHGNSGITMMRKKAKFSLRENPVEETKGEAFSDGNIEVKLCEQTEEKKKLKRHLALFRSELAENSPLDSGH

T3: Growth and differentiation factor 15 (GDF15) (UniProt Q99988 197-308, limits assumed)
T3 construct: Purchased GDF15 added to cells, pull-downs, peptide arrays and ELISA; also called MIC1
T3 sequence (looked up): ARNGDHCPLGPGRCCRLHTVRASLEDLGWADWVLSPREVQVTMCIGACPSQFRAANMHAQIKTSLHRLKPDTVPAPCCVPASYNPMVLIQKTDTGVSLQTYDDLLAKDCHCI


Assays:
[1] = molecular target: T1, GDF15; assay: ELISA of GDF15 binding to immobilised biotinylated CLPTM1 derived peptides; conditions: for binding of GDF15 to immobilised polypeptide: cut-off approximately greater than or equal to 0.1 OD
Experimental: (§1) Biotinylated synthetic peptide fragments from CLPTM1 (JPT peptides, Germany) were immobilized in a streptavidin 96 well plate (#15500 Pierce) at 1 μM in PBS over night at +4° C. Plate was washed 4 times in 300 μl PBS with 0.05% Tween-20 (wash buffer). The plate was blocked with PBS 1% BSA and 0.05% Tween-20 (blocking buffer) for 1.5 hours at room temperature then washed 4 times in wash buffer. GDF15 ligand (Abcam) was added in blocking buffer at 100 ng/ml at incubated at room temperature for 2 hours. The plate was then washed 8 times 300 μl in wash buffer with 2× NaCl. A GDF15 antibody as added at 1 ug/ml (RnD systems goat polyclonal) and incubated in block buffer for 1 hour at room temperature followed by washing with 4×300 μl wash buffer. HAF017 anti-goat-HRP antibody was added and incubated for 1 hour in blocking buffer followed by a wash. TMB substrate was added and stopped after 15 minutes with H2SO4. OD 450-620 was measured in an ELISA reader.
Polypeptides having sequences set forth in SEQ ID NOs:250-273 were assessed for binding to GDF15 (corresponding to the polypeptides indicated from left to right in FIG. 31). These proteins were synthesised with a C-terminal glycine residue not present in the corresponding sequences from CLPTM1. A cut-off of approximately greater than or equal to 0.1 OD in the ELISA readout was identified as indicating binding of the GDF15 to an immobilised polypeptide (i.e. including the 0.098 OD value for GDF15 binding to the polypeptide having the sequence set forth in SEQ ID NO:258).

[2] = molecular target: T2, QRFPR; assay: ACTRIIB assay: in situ PLA detection of ACTRIIB at the cell surface after QRFPR agonist P518; format: cell-based
Source text: A-C) In situ detection of QRFPR at the cell surface. A) Negative control cells with no added GDF15. B) Cells after exposure to GDF15. C) Cells after exposure to GDF15+ synthetic peptide GEKEYDDVTIK derived from extracellular domain 4 of QRFPR. […] D-F) In situ PLA detection of ACTRIIB at the cell surface. D) Control cells with no added P518. E) Cells after exposure to P518. F) Cells after exposure to P518+ synthetic peptide GEKEYDDVTIK derived from extracellular domain 4 of QRFPR in 125 molar excess. The ability of P518 to increase the level of ACTRIIB at the cell surface was not affected by the peptide.
The effect of the QRFPR agonist p518 was measured. In short, p518/QRFP-26 was purchased from Phoenix Peptides, CA and processed according to the manufacturer's instructions. Cells were serum-starved prior to P518 stimulation overnight.
P518 was mixed with either PBS or QRFPR receptor fragment dissolved in PBS prior to stimulation of cells.

[3] = molecular target: T1, GDF15; assay: Pull down of GDF15 by Fc fusion proteins with stringent washes; format: binding; conditions: 20 μg Fc fusion protein, 0.5 μg GDF15, protein-G bead, FIG. 27
Experimental: 20 μg Fc fusion protein constructs were incubated with 0.5 μg GDF15 and protein-G bead with mixing for 6 hrs in +4 C in PBST+1% BSAs. Wash 6 times: 3 times PBST, change tubes, 2 washes PBST+220 mM NaCl. Last wash PBS. The beads were collected using a table-top centrifuge set at 500 g for 5 minutes between washes. Detection The material was loaded on a 4-12% gradient gel, run at 100 volt, transferred to PVDF membrane using a Turbo Tank blot system, blocked by PBS with 3% BSA 1 hr RT, and incubated with RD systems a monoclonal anti-GDF15 antibody overnight. A secondary antibody: mouse HRP 1:2000 was used for detection. The size of band was estimated by comparing with a seeblue2 protein ladder marker run in an adjacent lane.
The fragments from the receptors were selected based on previous results including array data indicating direct interaction with GDF15. In the array, the interaction is between a peptide monomer and the ligand.

[4] = molecular target: T3, Growth and differentiation factor 15 …; assay: ELISA, biotinylated peptide in streptavidin wells, GDF15 at 100 ng/ml
Experimental: as §1, with “H₂SO₄.” for “H2SO4.”
Polypeptides having sequences set forth in SEQ ID NOs:250-273 were assessed for binding to GDF15 (corresponding to the polypeptides indicated from left to right in FIG. 31). These proteins were synthesised with a C-terminal glycine residue not present in the corresponding sequences from CLPTM1.

| Molecule | binding of GDF15 to immobilised polypeptide ([1]; FIG. 31) | binding result [4] | other results |
| --- | --- | --- | --- |
| YPINESLASLPLRVSFCPLSG (listed as Homo sapiens) [SEQ ID NO:269] | showed binding to GDF15 | – | – |
| GSIYIHVYFTKSGFHPDPRQG (listed as Homo sapiens) [SEQ ID NO:258] | showed binding to GDF15 | – | OD value in the ELISA readout for GDF15 binding ([1]; peptide immobilised at 1 μM, GDF15 100 ng/ml, OD 450-620, FIG. 31): 0.098 OD |
| ITINIVDDHTPWVKGSVPPPG (listed as Homo sapiens) [SEQ ID NO:262] | showed binding to GDF15 | – | – |
| QRFP(43-mer): known agonist for QRFPR (QDEGSEATGFLPAAGEKTSGPLGNLAEELNGYSRKKGGFSFRF; ends and bridges not checked; UniProt P83859 91-133, looked up) | – | – | regulation of the levels of ACTRIIB by QRFPR agonists [2]: act in opposite manner to each other |
| KALYRRLATVHMSRMINKYKG (listed as Homo sapiens) [SEQ ID NO:259] | showed binding to GDF15 | – | – |
| LDQYVKFDAVSGDYYPIIYFG (listed as Homo sapiens) [SEQ ID NO:263] | showed binding to GDF15 | – | – |
| p518: QRFPR agonist purchased from Phoenix Peptides (TSGPLGNLAEELNGYSRKKGGFSFRF) | – | – | regulation of the levels of ACTRIIB by QRFPR agonists [2]: act in opposite manner to each other; levels of ACTRIIB ([2]; p518 alone, serum-starved cells, overnight stimulation): sufficient to increase levels of ACTRIIB |
| Fc mouse IgG1-GGGGSGGGGSGGGGSQRLEIKYDFLYEKEH ({Fc mouse IgG1}-GGGGSGGGGSGGGGSQRLEIKYDFLYEKEH) [AP5, Fc fusion protein with QRFPR peptide] | – | – | pull down of GDF15 by Fc fusion protein [3]: capable of pulling down GDF15 |
| AAAQEADGARSAVVAAGGGSSGQVTSNGSIGRDPPAETQPQNPPAQPAPNAGGGGSGGGGSGGGGS-Fc mouse IgG1 (protein, control protein, Fc fusion) AAAQEADGARSAVVAAGGGSSGQVTSNGSIGRDPPAETQPQNPPAQPAPNAGGGGSGGGGSGGGGS-{Fc mouse IgG1} | – | – | pull down of GDF15 by Fc fusion protein [3]: did not interact with GDF15 |

The next lines start with results.

| binding of GDF15 to immobilised polypeptide ([1]; FIG. 31) | binding result [4] | Molecule | other results |
| --- | --- | --- | --- |
| showed binding to GDF15 | – | GDYYPIIYFNDYWNLQKDYYG (listed as Homo sapiens) [SEQ ID NO:270] | affinity for GDF15 (MIC1) within a panel of 24 CLPTM1 derived peptides [1]: highest affinity |
| – | binds | GDYYPIIYFNDYWNLQKDYYG (also: biotinylated, position not given here, Immobilised in streptavidin wells; the entry carries one added C-terminal G; also called (273-292)) [CLPTM1 peptide GDYYPIIYFNDYWNLQKDYYG (SEQ ID NO: 270)] | – |
| – | binds | LDQYVKFDAVSGDYYPIIYFG (also: biotinylated, position not given here, Immobilised in streptavidin wells; the entry carries one added C-terminal G; also called (262-280)) [CLPTM1 peptide LDQYVKFDAVSGDYYPIIYFG (SEQ ID NO: 263)] | – |
| – | binds | ITINIVDDHTPWVKGSVPPPG (also: biotinylated, position not given here, Immobilised in streptavidin wells; the entry carries one added C-terminal G; also called (242-260)) [CLPTM1 peptide ITINIVDDHTPWVKGSVPPPG (SEQ ID NO: 262)] | – |
| – | binds | KALYRRLATVHMSRMINKYKG (also: biotinylated, position not given here, Immobilised in streptavidin wells; the entry carries one added C-terminal G; also called (182-201)) [CLPTM1 peptide KALYRRLATVHMSRMINKYKG (SEQ ID NO: 259)] | – |
| – | binds | YPINESLASLPLRVSFCPLSG (also: biotinylated, position not given here, Immobilised in streptavidin wells; the entry carries one added C-terminal G; also called (292-311)) [CLPTM1 peptide YPINESLASLPLRVSFCPLSG (SEQ ID NO: 269)] | – |
